The values below come from patent US20240175869A1.

The target in experiment [1] is ALK6. The experiment in a line: solid-phase binding assay, saturation measured at 100 nM ALK6, pH 6.0.
Experiment [2] has as its target ALK6. The experiment can be described thus: solid-phase binding assay, pH 7.4 (FIG. 13).
The target of experiment [3] is ALK6. The experiment in a line: solid-phase binding assay, several assays, ALK6 at 100 nM.
For experiment [4], the target named is ALK6. The experiment can be described thus: solid-phase binding assay, MuSK construct immobilized, ALK6 titrated, pH 6.0; given as Half Max.
The target of experiment [5] is ALK6. The experiment can be described thus: solid-phase binding assay, pH 6.0 (FIG. 13).
Experiment [6] has as its target ALK6. The experiment can be described thus: solid-phase binding assay, saturation measured at 100 nM ALK6, pH 7.4.
The target of experiment [7] is ALK6. The experiment can be described thus: solid-phase binding assay, half max read from the curve (FIG. 10).
In experiment [8] the target is ALK6. The experiment can be described thus: solid-phase binding assay, MuSK construct immobilized, ALK6 titrated, pH 7.4; given as Half Max.
The target in experiment [9] is ALK6. The experiment in a line: solid-phase binding assay, MuSK immobilized, ALK6 at 100 nM (FIG. 7).
For experiment [10], the target named is ALK6. The experiment in a line: solid-phase binding assay, pH 6.0 (FIG. 12).
Experiment [11] addresses ALK6. The experiment in a line: solid-phase binding assay, MuSK construct immobilized, ALK6 at 100 nM (FIG. 8).
Experiment [12] deals with ALK6. The experiment in a line: solid-phase binding assay, pH 7.4 (FIG. 12).
In experiment [13] the target is ALK6. The experiment can be described thus: solid-phase binding assay, half max read from the curve (FIG. 8).
Experiment [14] has as its target ALK6. The experiment can be described thus: solid-phase binding assay, half max read from the curve (FIG. 9).
For experiment [15], the target named is ALK6. The experiment can be described thus: solid-phase binding assay, isolated domain immobilized, ALK6 titrated (FIG. 9).

Chain of ALK6 (O00238 14-126): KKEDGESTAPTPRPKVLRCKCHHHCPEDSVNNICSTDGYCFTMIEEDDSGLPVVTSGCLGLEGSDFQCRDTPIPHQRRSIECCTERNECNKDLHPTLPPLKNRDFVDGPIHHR
Chain of MuSK Ig1-Ig2 only construct, His-tagged (receptor) (Q62838 22-205): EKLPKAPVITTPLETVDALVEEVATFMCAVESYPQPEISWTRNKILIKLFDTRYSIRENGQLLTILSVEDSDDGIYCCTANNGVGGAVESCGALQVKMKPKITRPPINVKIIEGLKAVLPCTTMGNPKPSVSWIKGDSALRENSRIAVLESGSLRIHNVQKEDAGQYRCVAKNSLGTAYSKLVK
Chain of isolated MuSK Ig2 domain, His-tagged (receptor) (Q62838 121-205): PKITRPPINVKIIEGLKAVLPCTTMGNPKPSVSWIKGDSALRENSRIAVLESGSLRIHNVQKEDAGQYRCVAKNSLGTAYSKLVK

The EC50 is the concentration needed to bring the measured effect to its halfway point. A high value points to weaker potency. For “MuSK ectodomain with an Ig1 deletion (ΔIg1), His-tagged (receptor)”, the Saturation (%) with ALK6 [1] was found to be 100%; with ALK6 [6], 99%. Besides, the EC50 stood at 6.5 nM with ALK6 [2]; 13.7 nM in the experiment with ALK6 [4]; 6.5 nM with ALK6 [5]; 12.5 nM in the experiment with ALK6 [7]; 9.1 nM in the experiment with ALK6 [8]. In addition, the maximum absorbance (absorbance (450 nm)) with ALK6 [2] and with ALK6 [5] was 4 in each case. Moreover, the absorbance at 100 nM ALK6 (absorbance (450 nm)) in the experiment with ALK6 [3] is more than 3.
Turning to “MuSK ectodomain with Ig2 deletion (ΔIg2), His-tagged (receptor)”, the absorbance at 100 nM ALK6 (absorbance (450 nm)) with ALK6 [9] was 0.15.
With “MuSK Ig1-Ig2 only construct, His-tagged (receptor)”, the Saturation (%) with ALK6 [1] was determined as 99%; with ALK6 [6], 21%. Besides, the EC50 with ALK6 [10] turned out to be 6.25 nM; in the experiment with ALK6 [12], 25 nM; in the experiment with ALK6 [4] it was 15.9 nM; with ALK6 [13], 6.25 nM; with ALK6 [8] it was 18.2 nM. For the same substance, the absorbance (absorbance (450 nm)) with ALK6 [10] was found to be 3; in the experiment with ALK6 [12] it was 0.75. The substance further displayed an absorbance at 100 nM ALK6 (absorbance (450 nm)) with ALK6 [11] of 3.
With “isolated MuSK Ig2 domain, His-tagged (receptor)”, the Saturation (%) in the experiment with ALK6 [1] came to 83%. The results for the concentration for a half-maximal effect (EC50) in the experiment with ALK6 [14] and with ALK6 [4] were 6.25 nM and 23.6 nM, respectively. The substance also showed an absorbance (absorbance (450 nm)) with ALK6 [15] of 1.8.
